# Measurements: paper PMC12370991, “Visualizing acyl carrier protein interactions within a crosslinked type I polyketide synthase” (Nature Communications, 2025)
# T1: E. coli FabA (DH) (E. coli, UniProt P0A6Q3 2-172)
# T1 construct: FabA, type II FAS dehydratase, E. coli
# T1 sequence: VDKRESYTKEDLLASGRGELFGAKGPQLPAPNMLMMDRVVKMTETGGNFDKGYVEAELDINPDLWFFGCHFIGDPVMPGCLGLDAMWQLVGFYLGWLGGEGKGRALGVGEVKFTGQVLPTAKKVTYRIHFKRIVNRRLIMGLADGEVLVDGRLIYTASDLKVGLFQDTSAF
# T2: E. coli FabF (KS) (E. coli, UniProt P0AAI5 1-413)
# T2 construct: FabF, type II FAS ketosynthase, E. coli
# T2 sequence (looked up): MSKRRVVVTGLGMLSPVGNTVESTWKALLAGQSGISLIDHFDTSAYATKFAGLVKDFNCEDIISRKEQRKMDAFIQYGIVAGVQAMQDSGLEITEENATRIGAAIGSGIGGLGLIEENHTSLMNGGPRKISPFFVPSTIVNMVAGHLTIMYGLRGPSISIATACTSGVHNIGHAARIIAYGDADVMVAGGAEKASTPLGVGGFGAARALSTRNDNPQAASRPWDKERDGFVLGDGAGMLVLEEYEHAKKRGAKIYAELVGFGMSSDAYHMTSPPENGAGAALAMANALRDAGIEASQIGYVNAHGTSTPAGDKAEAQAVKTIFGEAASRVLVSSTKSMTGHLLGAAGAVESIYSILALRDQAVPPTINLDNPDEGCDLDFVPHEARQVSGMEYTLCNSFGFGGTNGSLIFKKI
# B1: E. coli crypto-AcpP (acyl carrier protein of the type II FAS loaded with a crosslinker) (natural protein)
# chain: MSTIEERVKKIIGEQLGVKQEEVTNNASFVEDLGADSLDTVELVMALEEEFDTEIPDEEAEKITTVQAAIDYINGHQA
# modifications: crosslinker 2, 3, 5, 6 or 8 loaded chemoenzymatically (crypto-AcpP)
# notes: AcpP, acyl carrier protein of the type II fatty acid synthase, E. coli; also called E. coli ACP; source: crypto-AcpP purified by SEC
# How the values were obtained:
# [1] = target: T1, E. coli FabA (DH); test: cross-linking; details: both partners purified
# [2] = target: T2, E. coli FabF (KS); test: cross-linking; details: both partners purified
binder,measurement,setting,value
B1,binding result,[1],binds
same,binding result,[2],binds
